In assay [1] the target is MC1R on B16-SIY cells (mouse) (UniProt Q01727). The assay can be described thus: cell-based or functional assay.
In assay [2] the target is human MC1R on HEK293 cells that overexpress it (human) (UniProt Q01726). The assay can be described thus: cell-based or functional assay.
In assay [3] the target is human PD-L1 (extracellular domain)-Fc fusion protein (human) (UniProt Q9NZQ7). The assay can be described thus: ELISA on human PD-L1 (extracellular domain)-Fc fusion protein.
human PD-L1 (extracellular domain)-Fc fusion protein (human), sequence (Q9NZQ7 19-238): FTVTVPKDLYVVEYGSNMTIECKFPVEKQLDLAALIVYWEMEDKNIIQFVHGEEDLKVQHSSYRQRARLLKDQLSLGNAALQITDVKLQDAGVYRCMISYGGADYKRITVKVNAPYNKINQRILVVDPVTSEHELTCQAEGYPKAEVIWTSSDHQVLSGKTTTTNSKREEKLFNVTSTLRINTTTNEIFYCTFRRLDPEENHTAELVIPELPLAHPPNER
The target is the same in assay [4]. The assay can be described thus: ELISA, PD-L1-Fc coated, detection with HRP anti-human kappa light chain antibody. (In an ELISA, binding on a coated surface is turned into a signal by an enzyme label.)
Assay [5] has as its target human MC1R on HEK293 cells that overexpress it (human) (UniProt Q01726). The assay can be described thus: cell surface ELISA on fixed HEK293-MC1R cells.

human MC1R on HEK293 cells that overexpress it (human), sequence (Q01726 whole entry, the tested form may be a part): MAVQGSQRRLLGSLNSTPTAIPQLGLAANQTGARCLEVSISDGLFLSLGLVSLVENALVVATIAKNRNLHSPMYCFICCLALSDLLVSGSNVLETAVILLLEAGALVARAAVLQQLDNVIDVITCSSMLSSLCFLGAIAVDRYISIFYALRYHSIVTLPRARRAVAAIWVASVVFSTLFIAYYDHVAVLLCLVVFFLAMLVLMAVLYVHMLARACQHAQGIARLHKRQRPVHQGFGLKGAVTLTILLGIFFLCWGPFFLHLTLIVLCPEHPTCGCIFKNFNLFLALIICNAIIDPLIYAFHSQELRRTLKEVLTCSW
MC1R on B16-SIY cells (mouse), sequence (Q01727 whole entry): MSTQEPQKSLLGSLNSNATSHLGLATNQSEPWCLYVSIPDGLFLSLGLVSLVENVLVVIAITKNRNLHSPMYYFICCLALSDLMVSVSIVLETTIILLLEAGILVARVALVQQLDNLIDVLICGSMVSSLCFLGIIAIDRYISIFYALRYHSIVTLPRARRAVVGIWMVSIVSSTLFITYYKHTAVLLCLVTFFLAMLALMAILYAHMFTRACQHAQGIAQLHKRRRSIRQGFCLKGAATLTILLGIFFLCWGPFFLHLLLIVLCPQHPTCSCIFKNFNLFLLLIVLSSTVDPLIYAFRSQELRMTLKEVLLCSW

In turn, NDP-MSH peptide ([Nle4, D-Phe7]-MSH) registered a B16-SIY cells cAMP-Glo Assay, EC50 in assay [1] of 0.06 nM. The same substance gave a CRE-Luc reporter in HEK 293 cells overexpressing MC1R, EC50 in assay [2] of 0.09 nM.
In assay [1], “NDP-MSH-Synagis (control antibody Synagis conjugated at the heavy chain N-terminal serine to H2NO-NDP-MSH)” gave a B16-SIY cells cAMP-Glo Assay, EC50 of 0.06 nM.
One may read the EC50 as the concentration that produces a half-maximal response. Low values mean a more potent agent, high ones a less potent agent. Take “NDP-MSH-αPD-L1 N-terminal conjugate (Atezolizumab with engineered heavy chain N-terminal serine and 8x(G4S) linker, oxime-ligated to H2NO-NDP-MSH, LAR 2) (bispecific antibody)”: the B16-SIY cells cAMP-Glo Assay, EC50 in assay [1] amounted to 0.02 nM. In assay [3], this substance returned an EC50 of 0.087 nM.
In turn, “NDP-MSH-αPD-L1 conjugate (Avelumab with NDP-MSH conjugated to lysines through BCN/PEG24, LAR about 3.5) (bispecific antibody)” registered a CRE-Luc reporter in HEK 293 cells overexpressing MC1R, EC50 in assay [2] of 2.7 nM. In addition, the values for the EC50 in assay [4] and in assay [5] were 0.17 nM and 1.72 nM, respectively.
